# The nanobody polyreactivity screen of Harvey et al. (2022)
# Assay: yeast display, Sf9 membrane polyspecificity reagent, FACS + sequencing; frameworks hold sequencing errors
# How it was run: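 Galactose induction of a Saccharomyces cerevisiae BJ5465 synthetic nanobody display library ran 36–48 hours. The cells were then stained for 1 hour at 4 °C with 10% biotinylated, detergent-solubilized Sf9 membrane reagent, pulled down on streptavidin microbeads and FACS-sorted into low and high (top ~1%) gates on expression and reagent-binding fluorescence. Labels for polyreactivity follow the gate of origin.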
row,Sequence,polyreactivity (PSR sort gate)
1,QVQLVESGGGLVQAGGSLRLSCAASGITYYRNAMGWYRQAPGKERELVAAISWSGGRTYYADSVKGRFTISRDNAKNTVYLQMNSLKPEDTAVYYCNKYTHYYDYDYWGQGTQVTVSS,high polyreactivity
2,QVQIVESGGGLVQAGGILRLSCAASVITFGYYAMGWYSQAPGKEWELVAAISRSGGNTRYADSVKGRFTISRDNAKNTVYLQMNSLTPEDTAVYYCAAYSRYTRTFPLFSGSRYGYWGHGTQVTVSS,high polyreactivity
3,QVQLVESGGGLVQAGGSLRLSCAASGRTFGRYTMGWYRQAPGKERELVATIRFNGGSTYYADSVKGRFTISRDNAKNTVYLQMNSLKPEDTAVYYCASYRGAYWGQGTQVTVSS,high polyreactivity
4,QVQLVESGGGLVQAGGSLRLSCAASGSIFTYYAMGWYRQAPGKERELVAAISWSGGSTYYADSVKGRFTISRDNAKNTVYLQMNSLKPEDTAVYYCAAGRFYKWSRYQEYDYWGQGTQVTVSS,low polyreactivity
5,QVQLVESGGGLVQAGGSLRLSCAASGSIFPYNAMGWYRQAPGKERELVAAISISGGSTYYADSVKGRFSISRDNAKNTVYLQMNSLKPEDTAVYYCAARQSLSSAFDYWGQGTQVTVSS,low polyreactivity
6,QVQLVESGGGLVQAGGSLRLSCAASGSIFLYNTMGWYRQAPGKERELVAAITSGGNTNYADSVKGRFTISRDNAKNTVYLQMHSLKPEDTAVYYCNVDLKAWLPDGGSVDYWGQGTQVTVSS,low polyreactivity
7,QVQIVESGGFLVQAGGSLRLSCDASGRNIPGYGMGWSRHAPGKERELVAVITSNGGITYYADSVKGRFTISRDYAKNTVYLQMNSLKPEDTAVYYCDAYVIYYEFDSWGQGTQVTVSS,low polyreactivity
8,QVQLVESGGGLVQAGGSLRLSCAASGRIINSNAMGWYRQAPGKERELVAAISTTGGRTYYADSVKGRFTISRDNAKNTVYLQMNSLKPEDTAVYYCNRLYRYLVWPAGEYDYWGQGTQVTVSS,high polyreactivity
9,QVQLVESGGGLVQAGGSLRLSCAASGFTLAYNAMGWYRQAPGKESELVAAISKSSGSTYYADSVKGRFTISRDNSKNTFYLQMNSLKPEDTAVYYCAAEFYFNGVWYDYWGQGTQVTVSS,high polyreactivity
10,QVQLVESGGGLVQAGGSLRLSCAASGSIFYYYAMGWYRQAPGKERELVAAITYDAGSTYYADSVKGRFTISRDNAKNTVYLQMNSLKPEDTAVYYCATDGIYHWGVYTPYDYWGQGTQVTVSS,low polyreactivity
11,QVQLVESGGGLVQAGGSLRLSCAASGRTVTYYVMGWYRQAPGNERELVARITSSGITYYADSVKGRFTISRDNAKNTVYLQMNSLKPEDTAVYYCAKRRNAWTPYRFDYWGQGTQVTVSS,high polyreactivity
12,QVQLVESGGGLVQAGGSLRLSCAASGFTFFGYAMGWYRQAPGKERELVATISDTGGSTYADSVKGRFTISRDNAKNTVYLQMNSLKPEDTAVYYFNARSVFYSMDYWGQGTQVTVSS,low polyreactivity
13,QVQLVESGGGLVQAGGRLRLSCAASGSTFGINAMGWYRQAPGKERELVAAITSTGRTYYADSVKGRFTISRDNAKNTVYLQMNSLKPEDTAVYYCAAVWRYKGLLLPSYYYWGQGTQVTVSS,high polyreactivity
14,QVQLQESGGGQVQAGGSLRLSCAASGTISPLPAMGWYRQAPGKEREFVAGIDTGAITNYADSVKGRFTISRDNAKNTVYLQMISLKPEDTAVYYCAVFPAAYDYYERYYTYWGQGTQVYVSS,low polyreactivity
15,QVQLVESGGGLVQAGGSLRLSCAASGRTFAYNAKGWYRQPPGKERELVASITVGGGSTYYADSVKGRFTISRDNAKNTVYLQMNSLKPEDTAVYYCAARVPSWKYDYWGQGTQVTVSS,high polyreactivity
16,QVQLVESGGGLVLAGGSLRLSCAASGNTFRYYAMGWYRQAPGKERELVADITIGGSTYYADSVKGRFTISRDNAKNTVYLQMNSLKPEDTAVYYCATDPDWGYYDAPYGYWGQGTQVTVSS,low polyreactivity
17,QVQLVESGGGLVQAGGTLRLSCAASGITFSDYTMGWYRQAPGKERELVDAISTSGGSTYYADSVKGRFTISRDNAKNTVYLQMNSQKPEDTAVYYCAAISAVTLRGYYYWGQRTQVTVSS,high polyreactivity
18,QVQLVESGGGLVQAGGSLRLSCAASGIIFTYYAMGWYRQAPGKEREIVAAISWSGGNTYYADSVKGRFTISRDHAKNTVYLQMNSLKPEDTAVYYCARVQYWFYKPMYYWGQGTQVTVSS,high polyreactivity
19,QVQLVESGGGLVQAGGILRLSCAASGFTFGPNTMGWNRQAPGKERELVAAISRSGGSTYYADSVKGRFTISRDNAKNTVYLQMNSLNPEDTAVYYCAAYSPLSGGRMDYWGQGTQVNVSS,high polyreactivity
20,QVQLVESGGGLVQAGGSLRLSCAASGFTFSYYAMGWYRQAPGKERELVAAITSGGRTYYADSVKGRFTISRDNAKNTVYLQMNSLKPEDTAVYYCATSSQRWFYSGNYWGQGTQVTVSS,high polyreactivity

row,Sequence,polyreactivity (PSR sort gate)
1,QVQLVESGGGLVQAGGRHRLSCAASGRTFGVYAMGWYRQAPGKEREFVGVISWSDDSTYYADSVKGRFTISRDNAKNTVSLQMNSLKPEDTAVYYCNADDYLVYSGSHYGYWGQGTQVTVSS,low polyreactivity
2,QVQLVESGGGLVQAGGSLRLSCAASGRICTRNAMGWYRQAPGKERELVAAISWRGGSTYYADSVKGRFTISRDNAKNTVYLQMNSLKPEDTAVYYCNAYFLSQYQSAYRDDYWGQGTQVTVSS,high polyreactivity
3,QVQLVESGGGLVQAGGSLRLSCAASGLTFVYYAMGWYRQAPGKERELVAAISSGGSTYYADSVKGRFTISRDNAKNTVYLQMNSLKPEDTAVYYCAATYSSFRRYPGAHYRFGYWGQGTQVTVSS,high polyreactivity
4,QVQLVESGGGLVQAGGSLRISCAASGRIFWTYAMGSYRQAPGKERELVAAITWRGGSTSYADSVKGRFTISRDNAKNTVYLQMNSLKPEDTAVYYCAADTYSYLRGTYEYDYWGQGTQVTVSS,high polyreactivity
5,QVQLVESGGGLVQAGGSLRLSCAASGRIFTRYAMGWYRQAPGKERELVAAITGSGGSTYYADSVKGRFTISRDNAKNTVYLQMNSLKPEDTAVYYCNKVTGRNADRYGYWGQGTQVTVSS,high polyreactivity
6,QVQLVESGGGLVQAGGSLRLSCAASGRTFLHYAMGWYRPAPGKERELVAAMSWSGGSTNYADSVKGRFTISRDNAKNTVYLQMNSLKPEDTAVYYCAADFYWVIYSTVEYGYWGQGTQVTVSS,low polyreactivity
7,QVQLEESGGGLVQSGGSLRLSCAASGRTFSGYAMGSYRQAPGKERELVSAISFSGGSTYYADSVKGRFTISRDNAMNTVYLQMNSLIPEDTAVYYCNAYSWYNGIGNYDYWGQGTQVTVSS,low polyreactivity
8,QVQLVESGGGLVQAGGSLRLSCAASGSIIRAYAMGWYRQAPGKERELVAAITIGDSTYYADSVKGRFTISRDNAKNTVYLQMNSLKPEDTAVYYCAAKSQHLYTRRFNYWGQGTQVTVSS,low polyreactivity
9,QVQLVESGGGLVQAGGSLRLSCAASVNTFYGYDMGWYRQAPGKEWELVASITLSGDSTYYADSVKGRFTISRDNEKNTVYLQMNSLKPEDTAVYYCAGVYTYPLGYYHYTYAYWGQGTQVTVSS,low polyreactivity
10,QVQLVESGGGLVQAGGSLRLSCAASGSTIRTNTMGWYRQAPGKERELVAAITKSGGSTYYADSVKGRFTISRDNAKNTVYLQMNSLKPEDTAVYYCAARVLYRSGLRGDYWGQGTQVTVSS,high polyreactivity
11,QVQLVESGGGLVQAGGSLRLSCAASGRTFPGNDMGWYRQAPGKERELVAAISGNGGNTNYADSVKGRFTISRDNAKNTVYLQMNSLKPEDTAVYYCKADVPSDGYPGYPGGFESWGQGTQVTVSS,low polyreactivity
12,QVQLVESGGGLVQAGGSLRLSCAASGYTFDAYAMGWYRQAPGKERELVAAITTNGGSTYYADSVKGRFTISRDNAKNTVFLQMNSLIPEDTAVFYCKAEYWYEGRYPYDYWGQGTQVTVSS,low polyreactivity
13,QVQLVESGGGLVQAGGSLRLSCAASGRTFYKYAMGWSRQAPGKERELVAVINWSGGRTYADSVKGRFTISRDNAKNTVYLQMNSLKPEDTAVYYCAADRGGLTHRWERNDYWGQGTQVTVSS,low polyreactivity
14,QVQLEESGGGLVQAGGSLRLSCAASGSTFFPYAMGWYRQAPGKERELVAGISSDGGTSYADSVKGRFTISRDTAKNTVYLQMNSLKPEDTAVYYCNARAVNVRDYINYDYWGQGTQVTVSS,low polyreactivity
15,QVQLVESGGGLVQAGGSLRLSCAASGSTFTGNAMGWYRQAPGKEREFVAAITYSGTRTNYADSVKGRFTISRDNAKNTVYLQMNSLKPEDTAVYYCAARFPWRRRYYYWGQGTQVTVSS,high polyreactivity
16,QVQLVESGGGLVQAGGSLRLICAASGITFPINTKGWYRQAPGKERELVAGIDWTGGSTYYADSVKGRFTISRDNAKNTVYLQMNSLKPEDTAVYYCAAEFFREGSPRAGSKMDYWGQGTQVTVSS,low polyreactivity
17,QVQLVESGGGLVQAGGSLRLSCAASGRTFRINAMGWYRQAPGKERELVAAITSGGRTNYADSVKGRFTISRDNAKNTVYLQMNSLKPEDTAVYYCAADTTHWYYLGYGYWGQGTQVTVSS,low polyreactivity
18,QVQLVESGGGLVQAGGSLRLSCAASGIIFYYSAMGCYRQAPGKERELVAAISWSGGTTIYADSVKGRFTISLDNAKSTVYLQMNSLKPKDTAVYYCAAAFSPGWWSRHTYDYDYWGQGTQLTVSS,high polyreactivity
19,QVQIVESGGGLVQAGGSLRLSCAASGSTSWSNAMGWYRQAPRKERELVAAITTGASTYYADSVKGRFTISRDNSKNTVYLQMNSLKLEDTAVYYCAADPWVLWSYYYWGQGTQVTVSS,low polyreactivity
20,QVQLVESGGGLVQAGGSLRLSCAASGFTFGGYAMGWYRQAPGKESEFVAAITGTGGNTFYADSVKGRFTISRDNAKNTVYLQMNSLKPEDTAVYYCAKTWYPWSRYGYYRRYDSWGQGTQVTVSS,low polyreactivity
